Key:
potato lectin (Sigma) [1] = biological target: T1, potato lectin (Sigma) (potato, UniProt Q9S8M0 23-323); assay: microcapsule retention; G: amine capsules, BS3 one-step, 1 ug VHH/cm2; potato lectin coat 10 ug/ml; 10% coverage
T1 construct: Bought glycoprotein, coated on ELISA plates
T1 sequence (looked up): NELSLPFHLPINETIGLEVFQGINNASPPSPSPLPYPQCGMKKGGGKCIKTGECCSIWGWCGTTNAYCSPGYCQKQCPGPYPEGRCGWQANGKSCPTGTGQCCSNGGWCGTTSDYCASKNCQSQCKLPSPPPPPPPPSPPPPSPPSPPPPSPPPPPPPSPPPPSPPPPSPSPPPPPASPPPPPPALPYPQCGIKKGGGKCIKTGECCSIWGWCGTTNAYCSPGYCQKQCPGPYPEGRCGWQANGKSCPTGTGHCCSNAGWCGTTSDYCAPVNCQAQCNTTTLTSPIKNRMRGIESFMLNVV

potato lectin (Sigma) [2] = biological target: T1, potato lectin (Sigma); assay: microcapsule retention; K: amine capsules, BS3 two-step, 1 ug VHH/cm2; potato lectin coat 1 ug/ml; 100% coverage
potato lectin (Sigma) [3] = biological target: T1, potato lectin (Sigma); assay: microcapsule retention; C: carboxyl capsules, EDC/Sulfo-NHS, 1 ug VHH/cm2; potato lectin coat 1 ug/ml; 10% coverage
potato lectin (Sigma) [4] = biological target: T1, potato lectin (Sigma); assay: microcapsule retention; H: amine capsules, BS3 one-step, 0.1 ug VHH/cm2; potato lectin coat 100 ug/ml; 10% coverage
potato lectin (Sigma) [5] = biological target: T1, potato lectin (Sigma); assay: microcapsule retention; L: amine capsules, BS3 two-step, 0.1 ug VHH/cm2; potato lectin coat 100 ug/ml; 100% coverage
potato lectin (Sigma) [6] = biological target: T1, potato lectin (Sigma); assay: microcapsule retention; C: carboxyl capsules, EDC/Sulfo-NHS, 1 ug VHH/cm2; potato lectin coat 10 ug/ml; 100% coverage
potato lectin (Sigma) [7] = biological target: T1, potato lectin (Sigma); assay: microcapsule retention; D: carboxyl capsules, EDC/Sulfo-NHS, 0.1 ug VHH/cm2; potato lectin coat 1 ug/ml; 10% coverage
potato lectin (Sigma) [8] = biological target: T1, potato lectin (Sigma); assay: microcapsule retention; D: carboxyl capsules, EDC/Sulfo-NHS, 0.1 ug VHH/cm2; potato lectin coat 1 ug/ml; 100% coverage
potato lectin = biological target: T2, potato lectin (Solanum tuberosum, UniProt Q9S8M0); assay: ELISA-like assay of VHH-coupled microcapsules on antigen-coated wells; conditions: microcapsule binding assays
T2 sequence (Q9S8M0 23-323): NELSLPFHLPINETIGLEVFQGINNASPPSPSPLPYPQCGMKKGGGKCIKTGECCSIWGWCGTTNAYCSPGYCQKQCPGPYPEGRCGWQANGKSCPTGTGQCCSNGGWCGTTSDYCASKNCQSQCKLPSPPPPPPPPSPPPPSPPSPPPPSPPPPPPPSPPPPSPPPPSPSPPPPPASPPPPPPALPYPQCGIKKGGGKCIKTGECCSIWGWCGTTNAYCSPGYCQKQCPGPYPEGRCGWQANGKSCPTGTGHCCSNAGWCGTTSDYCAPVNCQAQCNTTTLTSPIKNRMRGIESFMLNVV
Protocol: An ELISA-like assay setup was used to evaluate the interaction of VHH-coupled microcapsules to antigen-containing surfaces. ELISA plates (Maxisorp (Thermo Scientific Nunc) or high bind half area microplates (Greiner Bio-One)) were coated with gum arabic or potato lectin. Coatings were performed overnight with 100 μg/ml gum arabic or potato lectin in PBS. Control wells included blank wells or wells coated with unrelated antigens. Plates were washed three times with PBS with 0.05%-TWEEN®-20 and blocked with 5% skimmed milk in PBS for 1 to 2 hours. VHH-coupled lambda cyhalothrin-containing or Uvitex-containing microcapsules were diluted to appropriate densities in 1% skimmed milk in PBS with 0.05%-TWEEN®-20. Microcapsules were added to the antigen-coated or control wells and allowed to bind for 1 hour. Unbound microcapsules were removed by washing five times with PBS with 0.05%-TWEEN®-20. The bottoms of ELISA plate wells were analyzed for bound microcapsules on a macrozoom microscope system (Nikon). Microcapsules were counted using Volocity image analysis software (Perkin Elmer). A DAPI filter was used to visualize Uvitex microcapsules. White LED illumination and bright field pictures were used for lambda cyhalothrin microcapsules. Controls for lambda cyhalothrin-containing or Uvitex-containing microcapsules included blank microcapsules and microcapsules to which unrelated VHH were coupled.

[9] = system: gum arabic or potato lectin; assay: Lambda cyhalothrin amounts in wells with bound microcapsules (GC/MS-MS); type: binding; conditions: VHH coupled to lambda cyhalothrin microcapsules
Protocol: In another experiment lambda cyhalothrin amounts were also determined analytically. 100 μl/well aceton was added to washed wells with bound microcapsules and transferred to glass vials with 10 ml of hexane containing 0.05% triphenylphosphate as internal standard. The amount of lambda cyhalothrin was determined by GC/MS-MS analysis in comparison with calibration solutions. Controls for lambda cyhalothrin microcapsules included blank microcapsules to which no VHH were coupled and microcapsules to which unrelated VHH were coupled. Controls also included wells to which no gum arabic or potato lectin was coated.

potato leaf discs = assay: Leaf disc binding assay with VHH-coupled Uvitex microcapsules; set-up: species or system potato (variety Désirée)
Protocol: A leaf disc binding assay was used to evaluate the interaction of VHH-coupled microcapsules with potato, grass and azalea leaves. ø 8 mm leaf discs were sampled from the leaves of potato pot plants (variety Désirée), from the leaves of greenhouse-grown Lollium perenne and from the leaves of azalea pot plants. Leaf discs were washed three times with PBS. Microcapsules containing lambda cyhalothrin or Uvitex were diluted to appropriate densities in 1% skimmed milk in PBS with 0.05%-TWEEN®-20. Microcapsules were added to the leaf discs and settling of microcapsules and binding of targeting agents allowed for 1 hour. Unbound microcapsules were removed by washing three to five times with PBS with 0.05%-TWEEN®-20.
Leaf discs with Uvitex microcapsules were analyzed for bound microcapsules on a macrozoom microscope system (Nikon). Microcapsules were counted using Volocity image analysis software (Perkin Elmer). A DAPI filter was used to visualize Uvitex microcapsules. […]
A titration experiment was performed to investigate what dilution factor of microcapsules with specific VHH corresponds to an application of microcapsules to which no VHH were coupled to obtain similar amounts of microcapsules after an identical treatment. Two-fold serial dilutions of microcapsules were prepared and leaf disc binding was analyzed on potato leaf discs for these dilution series. […]

unrelated antigens = assay: VHH-coupled Uvitex microcapsules retained on wells coated with unrelated antigen; 4% surface coverage

Molecule Control VHH has a microcapsule counts (microcapsules) (potato lectin (Sigma) [1]) of 13, a microcapsule counts (microcapsules) (potato lectin (Sigma) [2]) of 617 and a microcapsule counts (microcapsules) (potato lectin (Sigma) [3]) of 49. It also gave a microcapsule counts (microcapsules) (potato lectin (Sigma) [4]) of 225, a microcapsule counts (microcapsules) (potato lectin (Sigma) [5]) of 1110 and a microcapsule counts (microcapsules) (potato lectin (Sigma) [6]) of 265. It also gave a microcapsule counts (microcapsules) (potato lectin (Sigma) [7]) of 64 and a microcapsule counts (microcapsules) (potato lectin (Sigma) [8]) of 227.

B1: VHH 3E6 (VHH)
VHH: QVQLQESGGGLVQPGGTLSLSCAASGFNVRWYGMGWFRQAPGKEREGVACISALQETTAYADSVKGRFTLSRDNPKNTLSLQMNNLQPEDTGVYYCATTDCDDSSRMTYTSYLGQGTQVTVSS
notes: also called Monovalent VHH 3E6
For B1, the “binding to antigen-coated surfaces when coupled to a microcapsule” value (potato lectin) was “capable of binding specifically to antigen-coated surfaces”, the “binding to surfaces with unrelated antigens when coupled to a microcapsule” value (potato lectin) was “No significant binding” and the “increase of amounts of lambda cyhalothrin in wells coated with antigen” value ([9]; compared to blank microcapsules) was 23 fold. The “increase of amounts of lambda cyhalothrin in wells coated with antigen” value ([9]; over blank wells not coated with antigen) was 27 fold, the “binding and retaining of Uvitex microcapsules to leaf surfaces” value (potato leaf discs) was “capable of binding and retaining microcapsules specifically to leaf surfaces” and the surface area of bound microcapsules (unrelated antigens) was 5.01.

— patent publication US20130217572A1, “SPECIFIC DELIVERY OF AGROCHEMICALS” (VRIJE UNIVERSITEIT BRUSSEL, priority 2010, published 2013)
